Literature values in patent US9180102B2, “Methods for fabricating nano and microparticles for drug delivery” (BOARD OF REGENTS, THE UNIVERSITY OF TEXAS SYSTEM, priority 2005, dated 2015).

Target: Cathepsin B (Homo sapiens, UniProt P07858)
Details: degradation of peptide spacer by lysosomal protease

sensitivity of peptide spacer sequence to Cathepsin B: especially sensitive
Substance: Gly-Phe-Leu-Gly (GFLG; printed: Gly-Phe-Leu-Gly)
